# Experimental data taken from patent US20150290235A1, “USE OF SMALL MOLECULE INHIBITORS/ACTIVATORS IN COMBINATION WITH (DEOXY)NUCLEOSIDE OR (DEOXY)NUCLEOTIDE ANALOGS FOR TREATMENT OF CANCER AND HEMATOLOGICAL MALIGNANCIES OR VIRAL INFECTIONS” (AB SCIENCE, priority 2012, published 2015).
# Tested on: Nc1ccn([C@@H]2O[C@H](CO)[C@@H](O)C2(F)F)c(=O)n1
# Experiment: cells, lysate or membranes named
# Conditions: other: ATP donor, 10 nM dCK, no masitinib
# human deoxycytidine kinase (dCK) (Homo sapiens), sequence (chain, as listed by the source): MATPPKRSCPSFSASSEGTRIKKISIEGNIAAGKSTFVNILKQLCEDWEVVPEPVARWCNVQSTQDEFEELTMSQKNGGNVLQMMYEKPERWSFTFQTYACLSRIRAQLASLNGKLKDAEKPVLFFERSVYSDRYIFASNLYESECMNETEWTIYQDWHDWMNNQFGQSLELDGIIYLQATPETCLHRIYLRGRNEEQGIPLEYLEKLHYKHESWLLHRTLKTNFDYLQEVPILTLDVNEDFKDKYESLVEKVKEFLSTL
substance,measurement,value
human deoxycytidine kinase (dCK) (Homo sapiens),Km,1 ± 0.3 µM
